Read-outs that look alike come from different tables or passages of the source.
How the values were obtained:
Assay in all cases: cell-based or functional assay
[1] = biological target: T1, IL-18 receptor (IL-18Rα/IL-18Rβ) on human PBMCs (human) (UniProt Q13478)
T1 sequence 1: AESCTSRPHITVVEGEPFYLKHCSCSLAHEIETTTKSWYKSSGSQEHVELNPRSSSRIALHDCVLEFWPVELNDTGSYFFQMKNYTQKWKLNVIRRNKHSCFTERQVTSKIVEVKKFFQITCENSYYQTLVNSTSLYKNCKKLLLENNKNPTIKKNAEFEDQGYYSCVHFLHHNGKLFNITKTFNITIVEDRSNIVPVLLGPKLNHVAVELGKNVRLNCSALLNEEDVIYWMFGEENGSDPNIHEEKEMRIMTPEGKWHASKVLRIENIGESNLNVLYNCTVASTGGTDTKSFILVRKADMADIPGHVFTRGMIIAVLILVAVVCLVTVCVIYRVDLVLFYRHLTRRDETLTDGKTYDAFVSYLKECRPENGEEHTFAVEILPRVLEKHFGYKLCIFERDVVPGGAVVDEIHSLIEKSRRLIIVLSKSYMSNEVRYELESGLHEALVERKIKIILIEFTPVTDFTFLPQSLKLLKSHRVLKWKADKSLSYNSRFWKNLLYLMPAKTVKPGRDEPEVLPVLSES
T1 sequence 2: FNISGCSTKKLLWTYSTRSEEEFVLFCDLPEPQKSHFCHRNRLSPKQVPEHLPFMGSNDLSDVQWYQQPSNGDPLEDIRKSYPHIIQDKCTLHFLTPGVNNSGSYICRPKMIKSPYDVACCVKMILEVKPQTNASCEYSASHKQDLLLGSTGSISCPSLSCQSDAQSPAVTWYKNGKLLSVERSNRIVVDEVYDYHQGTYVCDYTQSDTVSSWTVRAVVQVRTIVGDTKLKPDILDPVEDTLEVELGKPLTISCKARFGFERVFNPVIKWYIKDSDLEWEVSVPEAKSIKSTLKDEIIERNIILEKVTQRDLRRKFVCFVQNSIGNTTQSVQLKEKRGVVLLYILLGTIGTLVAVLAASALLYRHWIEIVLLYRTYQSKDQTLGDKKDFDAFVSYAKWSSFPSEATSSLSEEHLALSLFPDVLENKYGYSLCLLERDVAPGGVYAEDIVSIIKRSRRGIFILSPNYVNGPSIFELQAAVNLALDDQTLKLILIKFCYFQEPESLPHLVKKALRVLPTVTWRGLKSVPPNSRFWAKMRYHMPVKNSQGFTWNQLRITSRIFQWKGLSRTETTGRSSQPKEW

[2] = biological target: T2, IL-18 receptor (IL-18Rα/IL-18Rβ) overexpressed on HEK-Blue IL-18 cells (Homo sapiens (Human)) (UniProt Q13478)
T2 sequence 1: T1 sequence 1
T2 sequence 2: T1 sequence 2

[3] = biological target: T2, IL-18 receptor (IL-18Rα/IL-18Rβ) overexpressed on HEK-Blue IL-18 cells (Homo sapiens (Human)); remark: listed apart in the source
[4] = biological target: T2, IL-18 receptor (IL-18Rα/IL-18Rβ) overexpressed on HEK-Blue IL-18 cells (Homo sapiens (Human)); remark: listed apart in the source
[5] = biological target: T2, IL-18 receptor (IL-18Rα/IL-18Rβ) overexpressed on HEK-Blue IL-18 cells (Homo sapiens (Human)); remark: listed apart in the source
[6] = biological target: T2, IL-18 receptor (IL-18Rα/IL-18Rβ) overexpressed on HEK-Blue IL-18 cells (Homo sapiens (Human)); remark: listed apart in the source

Sequence of Human IL-18 (Q14116 37-193 limits assumed): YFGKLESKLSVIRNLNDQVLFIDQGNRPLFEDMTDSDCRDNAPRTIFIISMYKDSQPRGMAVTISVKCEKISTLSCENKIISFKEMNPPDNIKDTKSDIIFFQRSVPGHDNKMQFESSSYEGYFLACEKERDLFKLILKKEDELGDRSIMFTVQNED

A PBMC IFNγ induction (24 h, with IL-12): EC50, Average [1] of 6.8, a PBMC IFNγ induction (24 h, with IL-12): EC50, donor 1 [1] of 1.9 and a PBMC IFNγ induction (24 h, with IL-12): EC50, donor 2 [1] of 1.7 were found for “Human IL-18 (from UniProt Q14116 37-193) (ligand)” in this work. For the same substance, the PBMC IFNγ induction (24 h, with IL-12): EC50, donor 3 [1] was 1.4, the PBMC IFNγ induction (24 h, with IL-12): EC50, donor 4 [1] was 4.7 and the PBMC IFNγ induction (24 h, with IL-12): EC50, donor 5 [1] was 1.9. It also gave a PBMC IFNγ induction (24 h, with IL-12): EC50, donor 6 [1] of 29.4, a PBMC: calculated maximum induction of IFNγ after 24 hours, donor 1 [1] of 42000 and a PBMC: calculated maximum induction of IFNγ after 24 hours, donor 2 [1] of 5300. The PBMC: calculated maximum induction of IFNγ after 24 hours, donor 3 [1] was 89000, the PBMC: calculated maximum induction of IFNγ after 24 hours, donor 4 [1] was 69000 and the PBMC: calculated maximum induction of IFNγ after 24 hours, donor 5 [1] was 150000. For the same substance, the PBMC: calculated maximum induction of IFNγ after 24 hours, donor 6 [1] was 28000, the HEK-Blue IL-18: Abs 405 (Ave of 2) [2] was 2.6 Abs and the HEK-Blue IL-18: Abs405 (Emax), Average (hu IL-18) [2] was 2.72 Abs. It also gave an HEK-Blue IL-18: EC50 (M), Average (hu IL-18) [2] of 7.14e-14 M, an HEK-Blue IL-18: Emax (Abs at 630 nm), Human IL-18 (1 ng/ml) (Abs at 630 nm) [2] of 3.25 and an HEK-Blue IL-18: Fold over background [2] of 22 fold. For the same substance, the HEK-Blue IL-18: Abs 405 at 100 nM [3] was 2.6 Abs, the HEK-Blue IL-18: Fold over background [3] was 14.4 fold and the HEK-Blue IL-18: Abs405 [4] was 3.08 Abs. For the same substance, the HEK-Blue IL-18: Fold over background [4] was 26 fold, the HEK-Blue IL-18: Abs405 [5] was 3.1 Abs and the HEK-Blue IL-18: Fold over background [5] was 13.6 fold. The HEK-Blue IL-18: Abs 405 at 100 nM [6] was 3 Abs and the HEK-Blue IL-18: Fold over background [6] was 13.2 fold.
